Biological target: Lys^75-FL-calmodulin (FL-CaM) (human, UniProt P0DP23 1-149, 5-(4,6-dichlorotriazinyl)aminofluorescein (FL) on Lys75)
Test: fluorescence polarisation

B1: Ca^2+/calmodulin-dependent protein kinase IV (CaMKIV) (enzyme)
chain: MLKVTVPSCPSSPCSSVTSSTENLVPDYWIDGSKRDPLSDFFEVESELGRGATSIVYRCKQKGTQKPYALKVLKKTVDKKIVRTEIGVLLRLSHPNIIKLKEIFETPTEISLVLELVTGGELFDRIVEKGYYSERDAADAVKQILEAVAYLHENGIVHRDLKPENLLYATPAPDAPLKIADFGLSKIVEHQVLMKTVCGTPGYCAPEILRGCAYGPEVDMWSVGIITYILLCGFEPFYDERGDQFMFRRILNCEYYFISPWWDEVSLNAKDLVKKLIVLDPKKRLTTFQALQHPWVTGKAANFVHMDTAQKKLQEFNARRKLKAAVKAVVASSRLGSASSSHTNIQESNKASSEAQPAQDGKDKTDPLENKMQAGDHEAAKAAADETMKLQSEEVEEEEGVKEEEEEEEEEEETSRMVPQEPEDRLETDDQEMKRNSEETLKSVEEEMDPKAEEEAAAVGLGVPPQQDAILPEY
Does B1 bind?
Result: binds

From paper PMC2788865 (The Journal of Biological Chemistry, 2009)
